Test results taken from publication PMC11574045, “A cofactor-induced repressive type of transcription factor condensation can be induced by synthetic peptides to suppress tumorigenesis” (The EMBO Journal, 2024).

What follows are molecules tested on HEK293FT cells transfected with TF library (assay: Screening of TF condensates based on fluorescent puncta). Settings: Figure 1B numerical data; TF library screen, one value per transcriptional factor.
Type: cell-based
Summary of the method: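 Cells were seeded onto plasmid/PEI-loaded wells (plasmid 1.6 μg/ml final) and grown 60 h. Medium with or without glucose followed for 12 h. Fixed, permeabilized cells were stained against Flag or GAL4 tags, and condensate puncta were quantified from 50 random fields per well.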

| Molecule | Z score of condensed fraction |
| --- | --- |
| HOXC13 (protein, UniProt P31276 1-330, looked up) Homeobox protein Hox-C13: MTTSLLLHPRWPESLMYVYEDSAAESGIGGGGGGGGGGTGGAGGGCSGASPGKAPSMDGLGSSCPASHCRDLLPHPVLGRPPAPLGAPQGAVYTDIPAPEAARQCAPPPAPPTSSSATLGYGYPFGGSYYGCRLSHNVNLQQKPCAYHPGDKYPEPSGALPGDDLSSRAKEFAFYPSFASSYQAMPGYLDVSVVPGISGHPEPRHDALIPVEGYQHWALSNGWDSQVYCSKEQSQSAHLWKSPFPDVVPLQPEVSSYRRGRKKRVPYTKVQLKELEKEYAASKFITKEKRRRISATTNLSERQVTIWFQNRRVKEKKVVSKSKAPHLHST | -0.9976 |
| ARID5B (protein, UniProt Q14865 1-1188, looked up) AT-rich interactive …: MEPNSLQWVGSPCGLHGPYIFYKAFQFHLEGKPRILSLGDFFFVRCTPKDPICIAELQLLWEERTSRQLLSSSKLYFLPEDTPQGRNSDHGEDEVIAVSEKVIVKLEDLVKWVHSDFSKWRCGFHAGPVKTEALGRNGQKEALLKYRQSTLNSGLNFKDVLKEKADLGEDEEETNVIVLSYPQYCRYRSMLKRIQDKPSSILTDQFALALGGIAVVSRNPQILYCRDTFDHPTLIENESICDEFAPNLKGRPRKKKPCPQRRDSFSGVKDSNNNSDGKAVAKVKCEARSALTKPKNNHNCKKVSNEEKPKVAIGEECRADEQAFLVALYKYMKERKTPIERIPYLGFKQINLWTMFQAAQKLGGYETITARRQWKHIYDELGGNPGSTSAATCTRRHYERLILPYERFIKGEEDKPLPPIKPRKQENSSQENENKTKVSGTKRIKHEIPKSKKEKENAPKPQDAAEVSSEQEKEQETLISQKSIPEPLPAADMKKKIEGYQEFSAKPLASRVDPEKDNETDQGSNSEKVAEEAGEKGPTPPLPSAPLAPEKDSALVPGASKQPLTSPSALVDSKQESKLCCFTESPESEPQEASFPSFPTTQPPLANQNETEDDKLPAMADYIANCTVKVDQLGSDDIHNALKQTPKVLVVQSFDMFKDKDLTGPMNENHGLNYTPLLYSRGNPGIMSPLAKKKLLSQVSGASLSSSYPYGSPPPLISKKKLIARDDLCSSLSQTHHGQSTDHMAVSRPSVIQHVQSFRSKPSEERKTINDIFKHEKLSRSDPHRCSFSKHHLNPLADSYVLKQEIQEGKDKLLEKRALPHSHMPSFLADFYSSPHLHSLYRHTEHHLHNEQTSKYPSRDMYRESENSSFPSHRHQEKLHVNYLTSLHLQDKKSAAAEAPTDDQPTDLSLPKNPHKPTGKVLGLAHSTTGPQESKGISQFQVLGSQSRDCHPKACRVSPMTMSGPKKYPESLSRSGKPHHVRLENFRKMEGMVHPILHRKMSPQNIGAARPIKRSLEDLDLVIAGKKARAVSPLDPSKEVSGKEKASEQESEGSKAAHGGHSGGGSEGHKLPLSSPIFPGLYSGSLCNSGLNSRLPAGYSHSLQYLKNQTVLSPLMQPLAFHSLVMQRGIFTSPTNSQQLYRHLAAATPVGSSYGDLLHNSIYPLAAINPQAAFPSSQLSSVHPSTKL | -1.099 |
| HSBP1 (protein, UniProt O75506 1-76, looked up) Heat shock factor-binding …: MAETDPKTVQDLTSVVQTLLQQMQDKFQTMSDQIIGRIDDMSSRIDDLEKNIADLMTQAGVEELESENKIPATQKS | -0.06777 |
| HSF1 (protein, UniProt Q00613 1-529, looked up) Heat shock factor protein 1: MDLPVGPGAAGPSNVPAFLTKLWTLVSDPDTDALICWSPSGNSFHVFDQGQFAKEVLPKYFKHNNMASFVRQLNMYGFRKVVHIEQGGLVKPERDDTEFQHPCFLRGQEQLLENIKRKVTSVSTLKSEDIKIRQDSVTKLLTDVQLMKGKQECMDSKLLAMKHENEALWREVASLRQKHAQQQKVVNKLIQFLISLVQSNRILGVKRKIPLMLNDSGSAHSMPKYSRQFSLEHVHGSGPYSAPSPAYSSSSLYAPDAVASSGPIISDITELAPASPMASPGGSIDERPLSSSPLVRVKEEPPSPPQSPRVEEASPGRPSSVDTLLSPTALIDSILRESEPAPASVTALTDARGHTDTEGRPPSPPPTSTPEKCLSVACLDKNELSDHLDAMDSNLDNLQTMLSSHGFSVDTSALLDLFSPSVTVPDMSLPDLDSSLASIQELLSPQEPPRPPEAENSSPDSGKQLVHYTAQPLFLLDPGSVDTGSNDLPVLFELGEGSYFSEGDGFAEDPTISLLTGSEPPKAKDPTVS | -1.041 |
| HSFX1 (protein, UniProt Q9UBD0 1-423, looked up) Heat shock transcription …: MEDKRSLSMARCEERNSRGQDHGLERVPFPPQLQSETYLHPADPSPAWDDPGSTGSPNLRLLTEEIAFQPLAEEASFRRPHPDGDVPPQGEDNLLSLPFPQKLWRLVSSNQFSSIWWDDSGACRVINQKLFEKEILKRDVAHKVFATTSIKSFFRQLNLYGFRKRRQCTFRTFTRIFSAKRLVSILNKLEFYCHPYFQRDSPHLLVRMKRRVGVKSAPRHQEEDKPEAAGSCLAPADTEQQDHTSPNENDQVTPQHREPAGPNTQIRSGSAPPATPVMVPDSAVASDNSPVTQPAGEWSEGSQAHVTPVAAVPGPAALPFLYVPGSPTQMNSYGPVVALPTASRSTLAMDTTGLPAPGMLPFCHLWVPVTLVAAGAAQPAASMVMFPHLPALHHHCPHSHRTSQYMPASDGPQAYPDYADQST | -0.6149 |
| HSFY1 (protein, UniProt Q96LI6 1-401, looked up) Heat shock transcription …: MAHVSSETQDVSPKDELTASEASTRSPLCEHTFPGDSDLRSMIEEHAFQVLSQGSLLESPSYTVCVSEPDKDDDFLSLNFPRKLWKIVESDQFKSISWDENGTCIVINEELFKKEILETKAPYRIFQTDAIKSFVRQLNLYGFSKIQQNFQRSAFLATFLSEEKESSVLSKLKFYYNPNFKRGYPQLLVRVKRRIGVKNASPISTLFNEDFNKKHFRAGANMENHNSALAAEASEESLFSASKNLNMPLTRESSVRQIIANSSVPIRSGFPPPSPSTSVGPSEQIATDQHAILNQLTTIHMHSHSTYMQARGHIVNFITTTTSQYHIISPLQNGYFGLTVEPSAVPTRYPLVSVNEAPYRNMLPAGNPWLQMPTIADRSAAPHSRLALQPSPLDKYHPNYN | 0.153 |
| ID4 (protein, UniProt P47928 1-161, looked up) DNA-binding protein inhibitor …: MKAVSPVRPSGRKAPSGCGGGELALRCLAEHGHSLGGSAAAAAAAAAARCKAAEAAADEPALCLQCDMNDCYSRLRRLVPTIPPNKKVSKVEILQHVIDYILDLQLALETHPALLRQPPPPAPPHHPAGTCPAAPPRTPLTALNTDPAGAVNKQGDSILCR | -0.9102 |
| IDB3 (protein, UniProt Q02535 1-119, looked up) DNA-binding protein inhibitor …: MKALSPVRGCYEAVCCLSERSLAIARGRGKGPAAEEPLSLLDDMNHCYSRLRELVPGVPRGTQLSQVEILQRVIDYILDLQVVLAEPAPGPPDGPHLPIQTAELTPELVISNDKRSFCH | -0.588 |
| IFI16 (protein, UniProt Q16666 1-785, looked up) Gamma-interferon-inducible …: MGKKYKNIVLLKGLEVINDYHFRMVKSLLSNDLKLNLKMREEYDKIQIADLMEEKFRGDAGLGKLIKIFEDIPTLEDLAETLKKEKLKVKGPALSRKRKKEVDATSPAPSTSSTVKTEGAEATPGAQKRKKSTKEKAGPKGSKVSEEQTQPPSPAGAGMSTAMGRSPSPKTSLSAPPNSSSTENPKTVAKCQVTPRRNVLQKRPVIVKVLSTTKPFEYETPEMEKKIMFHATVATQTQFFHVKVLNTSLKEKFNGKKIIIISDYLEYDSLLEVNEESTVSEAGPNQTFEVPNKIINRAKETLKIDILHKQASGNIVYGVFMLHKKTVNQKTTIYEIQDDRGKMDVVGTGQCHNIPCEEGDKLQLFCFRLRKKNQMSKLISEMHSFIQIKKKTNPRNNDPKSMKLPQEQRQLPYPSEASTTFPESHLRTPQMPPTTPSSSFFTKKSEDTISKMNDFMRMQILKEGSHFPGPFMTSIGPAESHPHTPQMPPSTPSSSFLTTKSEDTISKMNDFMRMQILKEGSHFPGPFMTSIGPAESHPHTPQMPPSTPSSSFLTTLKPRLKTEPEEVSIEDSAQSDLKEVMVLNATESFVYEPKEQKKMFHATVATENEVFRVKVFNIDLKEKFTPKKIIAIANYVCRNGFLEVYPFTLVADVNADRNMEIPKGLIRSASVTPKINQLCSQTKGSFVNGVFEVHKKNVRGEFTYYEIQDNTGKMEVVVHGRLTTINCEEGDKLKLTCFELAPKSGNTGELRSVIHSHIKVIKTRKNKKDILNPDSSMETSPDFFF | -0.2342 |
